Paper PMC6753080

Key:
[1] = biological target: 6xHis-MBP-ERC1 fusion protein (mouse); experiment: static light scattering; purified ERC1 on a Viskotek TDAMax system; data averaged across the protein elution volume; protein purified in 20 mM HEPES pH 7.4, 250 mM NaCl, 0.5 mM TCEP
[2] = biological target: 6xHis-MBP-ERC1 fusion protein (mouse); experiment: rotary shadowing electron microscopy; purified MBP-ERC1 diluted in spraying buffer (100 mM ammonium acetate, 30% glycerol), sprayed onto mica, platinum and carbon coated
GFP-ERC1 (mouse) = experiment: Numbers & Brightness; cytoplasm of living COS7 cells expressing GFP-ERC1; brightness compared with monomeric and dimeric GFP; confocal time series of 300 images

Sequence of GFP-ERC1 (Q99MI1 whole entry): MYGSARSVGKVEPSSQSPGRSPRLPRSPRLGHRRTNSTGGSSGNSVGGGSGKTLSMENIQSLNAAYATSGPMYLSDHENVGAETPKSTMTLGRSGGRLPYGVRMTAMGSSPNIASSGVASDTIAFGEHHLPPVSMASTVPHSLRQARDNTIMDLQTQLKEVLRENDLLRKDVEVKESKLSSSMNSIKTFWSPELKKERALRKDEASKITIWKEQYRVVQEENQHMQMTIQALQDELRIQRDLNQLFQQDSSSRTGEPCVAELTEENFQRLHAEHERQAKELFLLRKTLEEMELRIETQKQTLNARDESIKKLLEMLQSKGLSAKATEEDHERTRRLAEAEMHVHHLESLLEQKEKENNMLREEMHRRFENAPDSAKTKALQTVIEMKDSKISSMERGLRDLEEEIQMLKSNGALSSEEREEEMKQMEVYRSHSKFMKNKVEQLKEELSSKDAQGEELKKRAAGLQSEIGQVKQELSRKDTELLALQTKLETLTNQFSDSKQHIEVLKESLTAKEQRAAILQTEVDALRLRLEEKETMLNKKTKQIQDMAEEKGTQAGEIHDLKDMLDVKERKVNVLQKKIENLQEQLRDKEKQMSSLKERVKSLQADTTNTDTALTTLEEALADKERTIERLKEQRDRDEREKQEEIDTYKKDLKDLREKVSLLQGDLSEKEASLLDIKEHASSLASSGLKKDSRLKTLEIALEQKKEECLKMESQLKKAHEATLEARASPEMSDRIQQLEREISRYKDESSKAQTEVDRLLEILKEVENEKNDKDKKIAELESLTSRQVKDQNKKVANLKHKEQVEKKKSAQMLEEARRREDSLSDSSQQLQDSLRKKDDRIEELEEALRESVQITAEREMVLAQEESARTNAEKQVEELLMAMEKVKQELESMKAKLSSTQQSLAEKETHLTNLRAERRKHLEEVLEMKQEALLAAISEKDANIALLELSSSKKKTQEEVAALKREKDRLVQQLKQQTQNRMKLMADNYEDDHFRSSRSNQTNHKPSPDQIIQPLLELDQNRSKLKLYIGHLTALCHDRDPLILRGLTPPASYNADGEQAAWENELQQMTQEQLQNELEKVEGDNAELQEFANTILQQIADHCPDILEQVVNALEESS

With “6xHis-MBP-ERC1 fusion protein (natural protein)” the stoichiometry N [1] was 2 and the stoichiometry N [2] was 2.

For GFP-ERC1 (natural protein), the brightness ratio to monomeric GFP (GFP-ERC1 (mouse)) was 2.1 and the stoichiometry N (GFP-ERC1 (mouse)) was 2.
